{"source": "patent US7553630", "key": {"[1]": {"test_system": "peptide 1 (19 kDa) from plasmin digestion of CHO-derived human MI"}, "[2]": {"test_system": "peptide 3 (13.5 kDa) from plasmin digestion of CHO-derived human MI", "sequence (chain, as listed by the source)": "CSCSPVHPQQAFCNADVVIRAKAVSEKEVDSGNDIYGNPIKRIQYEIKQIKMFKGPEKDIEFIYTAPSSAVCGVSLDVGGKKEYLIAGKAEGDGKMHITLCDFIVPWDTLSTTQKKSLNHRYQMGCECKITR"}, "[3]": {"molecular_target": "type I collagenase in activated conditioned medium from TPA-treated rabbit synovial fibroblasts (rabbit) (UniProt P13943)", "test": "cell-based or functional assay"}, "[4]": {"molecular_target": "CHO cell-derived recombinant human metalloproteinase inhibitor (MI)"}, "[5]": {"molecular_target": "E. coli-derived recombinant human metalloproteinase inhibitor (MI)"}}, "data": [{"molecule": "gelatinase(s) in activated conditioned medium from TPA-treated rabbit synovial fibroblasts", "values": [{"measurement": "SDS-gelatin PAGE of a plasmin digest of MI", "setting": "[1]", "result": "These peptides retained their anticollagenase activity as shown by the SDS-gelatin PAGE"}, {"measurement": "SDS-gelatin PAGE of a plasmin digest of MI", "setting": "[2]", "result": "These peptides retained their anticollagenase activity as shown by the SDS-gelatin PAGE"}]}, {"molecule": "bovine peak II-derived metalloproteinase inhibitor (from UniProt P20414 24-207)", "values": [{"measurement": "Specific activity (units/mg), radiolabeled collagen film collagenase inhibition assay", "setting": "[3]", "result": 1780, "unit": "units/mg"}]}, {"molecule": "plasmin-treated rabbit fibroblast interstitial procollagenase (46-kDa intermediate) (protein) GNGLAVEKLKQMQEFFGLKVTGKPDAETLKMMKQPRCGVPDVAQFVLTPGNPRWEQTHLTYRIENYTPDLSRADVDNAIEKAFQLWSNVTPLTFTKVSKGQADIMISFVRGDHRDNSPFDGPEGQLAHAFQPGLGIGGDVHFDEDDRWTKDFRNYNLYRVAAHELGHSLGLSHSTDIGALMYPNYMFSGDVQLAQDDIDGIQAIYGPSQNPSQPVGPQTPKVCDSKLTFDAITTIRGEIMFFKDRFYMRANPYYSEVELNFISVFWPHLPNGLQAAYEVAHRDEILFFKGNKYWTVQGQNELPGYPKDIHSSFGFPRSVNHIDAAVSEEDTGKTYFFVANKYWRYDEYKRSMDAGYPKMIEYDFPGIGNKVDAVFKKDGFFYFFHGTRQYKFDPKTKRILTLQKANSWFNCRKN", "values": [{"measurement": "conversion of the 46-kDa intermediate to the 42-kDa active enzyme at 37° C. (SDS-PAGE); 27 pmol MI, 16 pmol procollagenase", "setting": "[4]", "result": "the conversion of the 46-kDa intermediate to the 42-kDa active enzyme which should have occurred at 37 °C was completely blocked by MI"}]}, {"molecule": "human plasmin (protein) KVYLSECKTGNGKNYRGTMSKTKNGITCQKWSSTSPHRPRFSPATHPSEGLEENYCRNPDNDPQGPWCYTTDPEKRYDYCDILECEEECMHCSGENYDGKISKTMSGLECQAWDSQSPHAHGYIPSKFPNKNLKKNYCRNPDRELRPWCFTTDPNKRWELCDIPRCTTPPPSSGPTYQCLKGTGENYRGNVAVTVSGHTCQHWSAQTPHTHNRTPENFPCKNLDENYCRNPDGKRAPWCHTTNSQVRWEYCKIPSCDSSPVSTEQLAPTAPPELTPVVQDCYHGDGQSYRGTSSTTTTGKKCQSWSSMTPHRHQKTPENYPNAGLTMNYCRNPDADKGPWCFTTDPSVRWEYCNLKKCSGTEASVVAPPPVVLLPDVETPSEEDCMFGNGKGYRGKRATTVTGTPCQDWAAQEPHRHSIFTPETNPRAGLEKNYCRNPDGDVGGPWCYTTNPRKLYDYCDVPQCAAPSFDCGKPQVEPKKCPGRVVGGCVAHPHSWPWQVSLRTRFGMHFCGGTLISPEWVLTAAHCLEKSPRPSSYKVILGAHQEVNLEPHVQEIEVSRLFLEPTRKDIALLKLSSPAVITDKVIPACLPSPNYVVADRTECFITGWGETQGTFGAGLLKEAQLPVIENKVCNRYEFLNGRVQSTELCAGHLAGGTDSCQGDSGGPLVCFEKDKYILQGVTSWGLGCARPNKPGVYVRVSRFVTWIEGVMRNN", "values": [{"measurement": "plasmin conversion of the 52-kDa proenzyme to the 46-kDa intermediate (SDS-PAGE)", "setting": "[4]", "result": "The addition of MI had no effect on the conversion of the 52-kDa proenzyme to the 46-kDa intermediate (lane 4)"}]}, {"molecule": "type I collagenase in activated conditioned medium from TPA-treated rabbit synovial fibroblasts (protein) FVLTPGNPRWEQTHLTYRIENYTPDLSRADVDNAIEKAFQLWSNVTPLTFTKVSKGQADIMISFVRGDHRDNSPFDGPEGQLAHAFQPGLGIGGDVHFDEDDRWTKDFRNYNLYRVAAHELGHSLGLSHSTDIGALMYPNYMFSGDVQLAQDDIDGIQAIYGPSQNPSQPVGPQTPKVCDSKLTFDAITTIRGEIMFFKDRFYMRANPYYSEVELNFISVFWPHLPNGLQAAYEVAHRDEILFFKGNKYWTVQGQNELPGYPKDIHSSFGFPRSVNHIDAAVSEEDTGKTYFFVANKYWRYDEYKRSMDAGYPKMIEYDFPGIGNKVDAVFKKDGFFYFFHGTRQYKFDPKTKRILTLQKANSWFNCRKN", "values": [{"measurement": "SDS-PAGE and autoradiography of specific collagen cleavage; MI at about 2 µg/ml", "setting": "[5]", "result": "also inhibited the specific collagen cleavage characteristic of mammalian collagenases"}]}, {"molecule": "rabbit fibroblast interstitial collagenase (42-kDa activated enzyme, APMA-activated) (protein) FVLTPGNPRWEQTHLTYRIENYTPDLSRADVDNAIEKAFQLWSNVTPLTFTKVSKGQADIMISFVRGDHRDNSPFDGPEGQLAHAFQPGLGIGGDVHFDEDDRWTKDFRNYNLYRVAAHELGHSLGLSHSTDIGALMYPNYMFSGDVQLAQDDIDGIQAIYGPSQNPSQPVGPQTPKVCDSKLTFDAITTIRGEIMFFKDRFYMRANPYYSEVELNFISVFWPHLPNGLQAAYEVAHRDEILFFKGNKYWTVQGQNELPGYPKDIHSSFGFPRSVNHIDAAVSEEDTGKTYFFVANKYWRYDEYKRSMDAGYPKMIEYDFPGIGNKVDAVFKKDGFFYFFHGTRQYKFDPKTKRILTLQKANSWFNCRKN", "values": [{"measurement": "SDS-PAGE and autoradiography of 14C type I collagen cleavage products; 4.6 pmol MI, 2.1 pmol collagenase", "setting": "[4]", "result": "The initial cleavage of the collagen as well as its further degradation were completely blocked by recombinant human MI."}]}]}
